Test results published in US20220017612A1 (TILOS THERAPEUTICS, published 2022).

Molecular target: biotinylated human LAP-TGFβ1 (Example 14) (human, UniProt P01137 30-390, biotinylated, sites not stated)
Experiment: BLI, antigen on tip, CHO supernatant; ratio to wild type
Experimental: A total of 49 single alanine substitutions were made in the heavy and light chain CDRs of the antibody to identify critical residues for human LAP-TGFβ1 binding. In addition, residue A25 in the light chain was substituted with glycine. Plasmid DNA for these variants was transfected into ExpiCHO cells in 1 mL cultures on 24-well plates, along with wells containing no DNA (negative control) and wells transfected with DNA for the wild-type antibody (positive control). IgG concentrations in each well were determined by binding to Protein A-functionalized tips. Tips were dipped into wells containing the supernatants from each culture. IgG concentrations were determined by comparing the rate of signal change for each well against the rate of signal change for a standard curve of purified 20E6_H0.2aL1_hIgG1 antibody diluted into ExpiCHO media. CHO supernatants were diluted to 0.6 μg/mL in media. A streptavidin-functionalized tip was equilibrated in binding buffer (10 mM sodium phosphate, 150 mM sodium chloride, 1% (w/v) bovine serum albumin, 0.05% (w/v) sodium azide, pH 7.4) and then dipped in a 5 μg/mL solution of biotinylated human LAP-TGFβ1 in binding buffer for 60 seconds to load the tip with antigen. The antigen-loaded tip was then washed in binding buffer and placed in the diluted CHO supernatant. The antigen was allowed to bind to antibody for 5 minutes (association phase), and then the tip was moved to binding buffer (dissociation phase). The association and dissociation phases were fit to a 1:1 binding model to determine binding rate constants.

biotinylated human LAP-TGFβ1 (Example 14), sequence (P01137 30-390 limits assumed): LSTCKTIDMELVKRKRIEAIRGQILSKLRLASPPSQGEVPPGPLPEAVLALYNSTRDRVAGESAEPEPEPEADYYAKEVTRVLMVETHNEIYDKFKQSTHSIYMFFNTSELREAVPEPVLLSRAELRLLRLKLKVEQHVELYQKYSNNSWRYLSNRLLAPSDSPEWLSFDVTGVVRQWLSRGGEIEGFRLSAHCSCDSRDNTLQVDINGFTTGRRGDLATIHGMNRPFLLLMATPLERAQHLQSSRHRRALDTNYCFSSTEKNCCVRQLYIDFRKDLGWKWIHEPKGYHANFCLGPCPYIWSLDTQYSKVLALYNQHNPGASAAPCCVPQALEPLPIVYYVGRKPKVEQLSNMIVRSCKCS

Row | Binder | KD,WT/KD,Ala
1 | 20E6_H0.2aL1_hIgG1 VH_D52A (antibody, V domains shown) VH: EVQLVQSGAEVKKPGASVKVSCKASGYTFTSYWMHWVRQAPGQGLEWMGRIAPQSGGIKYAQKFQGRATLTVDTSTSTAYMELSRLRSDDTAVYYCARWDYGGYFDVWGQGTLVTVSS VL: DIQMTQSPSSLSASVGDRVTITCRASQDITNYLNWYQQKPGKAVKLLIYYTSRLHSGVPSRFSGSGSGTDYTLTISSLQPEDFATYFCQQGDTLPWTFGQGTKLEIKR | 0.71
2 | 20E6_H0.2aL1_hIgG1 VH_I51A (antibody, V domains shown) VH: EVQLVQSGAEVKKPGASVKVSCKASGYTFTSYWMHWVRQAPGQGLEWMGRADPQSGGIKYAQKFQGRATLTVDTSTSTAYMELSRLRSDDTAVYYCARWDYGGYFDVWGQGTLVTVSS VL: DIQMTQSPSSLSASVGDRVTITCRASQDITNYLNWYQQKPGKAVKLLIYYTSRLHSGVPSRFSGSGSGTDYTLTISSLQPEDFATYFCQQGDTLPWTFGQGTKLEIKR | 0.73
3 | 20E6_H0.2aL1_hIgG1 VH_G26A (antibody, V domains shown) VH: EVQLVQSGAEVKKPGASVKVSCKASAYTFTSYWMHWVRQAPGQGLEWMGRIDPQSGGIKYAQKFQGRATLTVDTSTSTAYMELSRLRSDDTAVYYCARWDYGGYFDVWGQGTLVTVSS VL: DIQMTQSPSSLSASVGDRVTITCRASQDITNYLNWYQQKPGKAVKLLIYYTSRLHSGVPSRFSGSGSGTDYTLTISSLQPEDFATYFCQQGDTLPWTFGQGTKLEIKR | 1.4
4 | 20E6_H0.2aL1_hIgG1 VH_D100A (antibody, V domains shown) VH: EVQLVQSGAEVKKPGASVKVSCKASGYTFTSYWMHWVRQAPGQGLEWMGRIDPQSGGIKYAQKFQGRATLTVDTSTSTAYMELSRLRSDDTAVYYCARWAYGGYFDVWGQGTLVTVSS VL: DIQMTQSPSSLSASVGDRVTITCRASQDITNYLNWYQQKPGKAVKLLIYYTSRLHSGVPSRFSGSGSGTDYTLTISSLQPEDFATYFCQQGDTLPWTFGQGTKLEIKR | 0.28
5 | 20E6_H0.2aL1_hIgG1 VH_D106A (antibody, V domains shown) VH: EVQLVQSGAEVKKPGASVKVSCKASGYTFTSYWMHWVRQAPGQGLEWMGRIDPQSGGIKYAQKFQGRATLTVDTSTSTAYMELSRLRSDDTAVYYCARWDYGGYFAVWGQGTLVTVSS VL: DIQMTQSPSSLSASVGDRVTITCRASQDITNYLNWYQQKPGKAVKLLIYYTSRLHSGVPSRFSGSGSGTDYTLTISSLQPEDFATYFCQQGDTLPWTFGQGTKLEIKR | 0.24
6 | 20E6_H0.2aL1_hIgG1 VH_G56A (antibody, V domains shown) VH: EVQLVQSGAEVKKPGASVKVSCKASGYTFTSYWMHWVRQAPGQGLEWMGRIDPQSAGIKYAQKFQGRATLTVDTSTSTAYMELSRLRSDDTAVYYCARWDYGGYFDVWGQGTLVTVSS VL: DIQMTQSPSSLSASVGDRVTITCRASQDITNYLNWYQQKPGKAVKLLIYYTSRLHSGVPSRFSGSGSGTDYTLTISSLQPEDFATYFCQQGDTLPWTFGQGTKLEIKR | 1.62
7 | 20E6_H0.2aL1_hIgG1 VH_I58A (antibody, V domains shown) VH: EVQLVQSGAEVKKPGASVKVSCKASGYTFTSYWMHWVRQAPGQGLEWMGRIDPQSGGAKYAQKFQGRATLTVDTSTSTAYMELSRLRSDDTAVYYCARWDYGGYFDVWGQGTLVTVSS VL: DIQMTQSPSSLSASVGDRVTITCRASQDITNYLNWYQQKPGKAVKLLIYYTSRLHSGVPSRFSGSGSGTDYTLTISSLQPEDFATYFCQQGDTLPWTFGQGTKLEIKR | 0.52
8 | 20E6_H0.2aL1_hIgG1 VH_M34A (antibody, V domains shown) VH: EVQLVQSGAEVKKPGASVKVSCKASGYTFTSYWAHWVRQAPGQGLEWMGRIDPQSGGIKYAQKFQGRATLTVDTSTSTAYMELSRLRSDDTAVYYCARWDYGGYFDVWGQGTLVTVSS VL: DIQMTQSPSSLSASVGDRVTITCRASQDITNYLNWYQQKPGKAVKLLIYYTSRLHSGVPSRFSGSGSGTDYTLTISSLQPEDFATYFCQQGDTLPWTFGQGTKLEIKR | 0.84
9 | 20E6_H0.2aL1_hIgG1 VH_K59A (antibody, V domains shown) VH: EVQLVQSGAEVKKPGASVKVSCKASGYTFTSYWMHWVRQAPGQGLEWMGRIDPQSGGIAYAQKFQGRATLTVDTSTSTAYMELSRLRSDDTAVYYCARWDYGGYFDVWGQGTLVTVSS VL: DIQMTQSPSSLSASVGDRVTITCRASQDITNYLNWYQQKPGKAVKLLIYYTSRLHSGVPSRFSGSGSGTDYTLTISSLQPEDFATYFCQQGDTLPWTFGQGTKLEIKR | 0.69
10 | 20E6_H0.2aL1_hIgG1 VH_F29A (antibody, V domains shown) VH: EVQLVQSGAEVKKPGASVKVSCKASGYTATSYWMHWVRQAPGQGLEWMGRIDPQSGGIKYAQKFQGRATLTVDTSTSTAYMELSRLRSDDTAVYYCARWDYGGYFDVWGQGTLVTVSS VL: DIQMTQSPSSLSASVGDRVTITCRASQDITNYLNWYQQKPGKAVKLLIYYTSRLHSGVPSRFSGSGSGTDYTLTISSLQPEDFATYFCQQGDTLPWTFGQGTKLEIKR | 1.16
11 | 20E6_H0.2aL1_hIgG1 VH_H35A (antibody, V domains shown) VH: EVQLVQSGAEVKKPGASVKVSCKASGYTFTSYWMAWVRQAPGQGLEWMGRIDPQSGGIKYAQKFQGRATLTVDTSTSTAYMELSRLRSDDTAVYYCARWDYGGYFDVWGQGTLVTVSS VL: DIQMTQSPSSLSASVGDRVTITCRASQDITNYLNWYQQKPGKAVKLLIYYTSRLHSGVPSRFSGSGSGTDYTLTISSLQPEDFATYFCQQGDTLPWTFGQGTKLEIKR | 2.07
12 | 20E6_H0.2aL1_hIgG1 VH_G57A (antibody, V domains shown) VH: EVQLVQSGAEVKKPGASVKVSCKASGYTFTSYWMHWVRQAPGQGLEWMGRIDPQSGAIKYAQKFQGRATLTVDTSTSTAYMELSRLRSDDTAVYYCARWDYGGYFDVWGQGTLVTVSS VL: DIQMTQSPSSLSASVGDRVTITCRASQDITNYLNWYQQKPGKAVKLLIYYTSRLHSGVPSRFSGSGSGTDYTLTISSLQPEDFATYFCQQGDTLPWTFGQGTKLEIKR | 0.37

Next, values leading:

Row | KD,WT/KD,Ala | Binder
13 | 0.12 | 20E6_H0.2aL1_hIgG1 VH_W33A (antibody, V domains shown) VH: EVQLVQSGAEVKKPGASVKVSCKASGYTFTSYAMHWVRQAPGQGLEWMGRIDPQSGGIKYAQKFQGRATLTVDTSTSTAYMELSRLRSDDTAVYYCARWDYGGYFDVWGQGTLVTVSS VL: DIQMTQSPSSLSASVGDRVTITCRASQDITNYLNWYQQKPGKAVKLLIYYTSRLHSGVPSRFSGSGSGTDYTLTISSLQPEDFATYFCQQGDTLPWTFGQGTKLEIKR
14 | 0.94 | 20E6_H0.2aL1_hIgG1 VH_T30A (antibody, V domains shown) VH: EVQLVQSGAEVKKPGASVKVSCKASGYTFASYWMHWVRQAPGQGLEWMGRIDPQSGGIKYAQKFQGRATLTVDTSTSTAYMELSRLRSDDTAVYYCARWDYGGYFDVWGQGTLVTVSS VL: DIQMTQSPSSLSASVGDRVTITCRASQDITNYLNWYQQKPGKAVKLLIYYTSRLHSGVPSRFSGSGSGTDYTLTISSLQPEDFATYFCQQGDTLPWTFGQGTKLEIKR
15 | 0.6 | 20E6_H0.2aL1_hIgG1 VH_S31A (antibody, V domains shown) VH: EVQLVQSGAEVKKPGASVKVSCKASGYTFTAYWMHWVRQAPGQGLEWMGRIDPQSGGIKYAQKFQGRATLTVDTSTSTAYMELSRLRSDDTAVYYCARWDYGGYFDVWGQGTLVTVSS VL: DIQMTQSPSSLSASVGDRVTITCRASQDITNYLNWYQQKPGKAVKLLIYYTSRLHSGVPSRFSGSGSGTDYTLTISSLQPEDFATYFCQQGDTLPWTFGQGTKLEIKR
16 | 1.08 | 20E6_H0.2aL1_hIgG1 VH_V107A (antibody, V domains shown) VH: EVQLVQSGAEVKKPGASVKVSCKASGYTFTSYWMHWVRQAPGQGLEWMGRIDPQSGGIKYAQKFQGRATLTVDTSTSTAYMELSRLRSDDTAVYYCARWDYGGYFDAWGQGTLVTVSS VL: DIQMTQSPSSLSASVGDRVTITCRASQDITNYLNWYQQKPGKAVKLLIYYTSRLHSGVPSRFSGSGSGTDYTLTISSLQPEDFATYFCQQGDTLPWTFGQGTKLEIKR
17 | 0.97 | 20E6_H0.2aL1_hIgG1 VH_T28A (antibody, V domains shown) VH: EVQLVQSGAEVKKPGASVKVSCKASGYAFTSYWMHWVRQAPGQGLEWMGRIDPQSGGIKYAQKFQGRATLTVDTSTSTAYMELSRLRSDDTAVYYCARWDYGGYFDVWGQGTLVTVSS VL: DIQMTQSPSSLSASVGDRVTITCRASQDITNYLNWYQQKPGKAVKLLIYYTSRLHSGVPSRFSGSGSGTDYTLTISSLQPEDFATYFCQQGDTLPWTFGQGTKLEIKR
18 | 0.67 | 20E6_H0.2aL1_hIgG1 VH_Q54A (antibody, V domains shown) VH: EVQLVQSGAEVKKPGASVKVSCKASGYTFTSYWMHWVRQAPGQGLEWMGRIDPASGGIKYAQKFQGRATLTVDTSTSTAYMELSRLRSDDTAVYYCARWDYGGYFDVWGQGTLVTVSS VL: DIQMTQSPSSLSASVGDRVTITCRASQDITNYLNWYQQKPGKAVKLLIYYTSRLHSGVPSRFSGSGSGTDYTLTISSLQPEDFATYFCQQGDTLPWTFGQGTKLEIKR
19 | 0.87 | 20E6_H0.2aL1_hIgG1 VH_P53A (antibody, V domains shown) VH: EVQLVQSGAEVKKPGASVKVSCKASGYTFTSYWMHWVRQAPGQGLEWMGRIDAQSGGIKYAQKFQGRATLTVDTSTSTAYMELSRLRSDDTAVYYCARWDYGGYFDVWGQGTLVTVSS VL: DIQMTQSPSSLSASVGDRVTITCRASQDITNYLNWYQQKPGKAVKLLIYYTSRLHSGVPSRFSGSGSGTDYTLTISSLQPEDFATYFCQQGDTLPWTFGQGTKLEIKR
20 | 0.96 | 20E6_H0.2aL1_hIgG1 VH_S55A (antibody, V domains shown) VH: EVQLVQSGAEVKKPGASVKVSCKASGYTFTSYWMHWVRQAPGQGLEWMGRIDPQAGGIKYAQKFQGRATLTVDTSTSTAYMELSRLRSDDTAVYYCARWDYGGYFDVWGQGTLVTVSS VL: DIQMTQSPSSLSASVGDRVTITCRASQDITNYLNWYQQKPGKAVKLLIYYTSRLHSGVPSRFSGSGSGTDYTLTISSLQPEDFATYFCQQGDTLPWTFGQGTKLEIKR
